# Measurements from patent publication US20140087995A1 (published 2014).
# Numbered stars: 1 amine (or outer) side, 2 acyl side, 3 side chain; on linkers, the order of the positions; unused ones are H or OH. Bridge positions count the residues as written; N and C are the ends. Side chains are listed from the residue outwards. Ends that are not written are not given here. * marks the point of attachment. C20 diacid = O=C(O)CCCCCCCCCCCCCCCCCCC(=O)*; γGlu = O=C(O)[C@H](CCC(=O)[*:2])N[*:1]
# T1: rat calcitonin receptor (rat, UniProt P32214 25-516)
# T1 construct: whole, on cells; Used as membranes prepared from BHK tk'ts 13 cells transiently transfected with the rat calcitonin receptor (Assay VIII); also called rCTR; rat calcitonin (a) receptor
# T1 sequence (looked up): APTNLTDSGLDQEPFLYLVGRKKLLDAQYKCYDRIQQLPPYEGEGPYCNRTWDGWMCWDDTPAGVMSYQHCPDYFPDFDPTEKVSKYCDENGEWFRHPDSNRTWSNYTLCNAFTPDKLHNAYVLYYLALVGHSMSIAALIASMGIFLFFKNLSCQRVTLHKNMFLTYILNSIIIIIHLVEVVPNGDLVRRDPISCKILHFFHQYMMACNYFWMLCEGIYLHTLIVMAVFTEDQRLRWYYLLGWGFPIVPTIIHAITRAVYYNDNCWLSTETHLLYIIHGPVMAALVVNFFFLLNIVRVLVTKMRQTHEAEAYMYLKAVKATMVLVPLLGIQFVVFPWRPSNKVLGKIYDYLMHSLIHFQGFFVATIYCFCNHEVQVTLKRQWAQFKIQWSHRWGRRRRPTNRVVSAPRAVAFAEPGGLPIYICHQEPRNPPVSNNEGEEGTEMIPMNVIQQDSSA
# T2: rat amylin receptor (rat calcitonin receptor + rat RAMP 3) (rat, UniProt P32214 25-516; Q9JJ73 23-147)
# T2 construct: whole, on cells; Used as membranes prepared from BHK tk'ts 13 cells transiently transfected with rat calcitonin receptor and rat RAMP 3 (Assay VI); also called rAmylin-R; rat amylin 3(a) receptor
# T2 sequence (looked up) 1: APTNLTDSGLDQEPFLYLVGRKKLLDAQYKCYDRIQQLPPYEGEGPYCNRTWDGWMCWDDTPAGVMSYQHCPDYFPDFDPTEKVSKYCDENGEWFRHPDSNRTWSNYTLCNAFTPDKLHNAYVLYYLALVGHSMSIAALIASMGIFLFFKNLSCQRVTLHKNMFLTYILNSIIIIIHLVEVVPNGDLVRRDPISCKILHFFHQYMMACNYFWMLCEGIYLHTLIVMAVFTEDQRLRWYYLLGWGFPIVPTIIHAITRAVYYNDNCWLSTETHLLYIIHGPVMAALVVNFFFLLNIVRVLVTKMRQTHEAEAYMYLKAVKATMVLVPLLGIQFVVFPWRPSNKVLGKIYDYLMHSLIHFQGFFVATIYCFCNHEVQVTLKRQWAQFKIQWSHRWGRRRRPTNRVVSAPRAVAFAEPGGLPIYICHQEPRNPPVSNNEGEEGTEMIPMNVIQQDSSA
# T2 sequence (looked up) 2: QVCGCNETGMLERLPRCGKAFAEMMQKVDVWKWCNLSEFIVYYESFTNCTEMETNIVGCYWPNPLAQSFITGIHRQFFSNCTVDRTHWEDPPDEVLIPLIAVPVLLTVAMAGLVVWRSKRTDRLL
# T3: human calcitonin receptor (human, UniProt P30988 25-474)
# T3 construct: whole, on cells; Used as membranes prepared from a BHK tk'ts 13 cell line stably transfected with the human calcitonin receptor (Assay VII); also called hCTR; hCT
# T3 sequence (looked up): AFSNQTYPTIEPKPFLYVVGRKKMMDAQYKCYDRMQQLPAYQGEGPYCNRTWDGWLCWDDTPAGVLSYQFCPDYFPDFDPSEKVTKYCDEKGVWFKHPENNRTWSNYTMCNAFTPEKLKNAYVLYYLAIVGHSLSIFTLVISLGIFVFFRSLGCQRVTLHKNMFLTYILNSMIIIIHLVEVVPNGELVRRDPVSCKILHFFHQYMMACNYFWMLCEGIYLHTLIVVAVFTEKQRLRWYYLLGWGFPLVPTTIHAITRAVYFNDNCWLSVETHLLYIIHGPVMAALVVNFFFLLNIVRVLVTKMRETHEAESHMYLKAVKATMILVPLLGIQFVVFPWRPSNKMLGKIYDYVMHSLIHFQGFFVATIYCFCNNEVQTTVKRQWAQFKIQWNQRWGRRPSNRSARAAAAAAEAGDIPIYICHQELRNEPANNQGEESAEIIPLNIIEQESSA
# How the values were obtained:
# [1] = target: T1, rat calcitonin receptor; test: IC50 on rat CTR divided by IC50 on rat amylin receptor (Assays VIII/VI)
# [2] = target: T2, rat amylin receptor (rat calcitonin …); test: SPA competition with 125I-rat amylin, membranes of BHK cells with rat CTR + rat RAMP3 (Assay VI)
# [3] = target: T1, rat calcitonin receptor; test: SPA competition with 125I-calcitonin, membranes of BHK cells with rat CTR (Assay VIII)
# [4] = target: T3, human calcitonin receptor; test: IC50 on human CTR divided by IC50 on human amylin receptor (Assays VII/V)
# Outline: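 Competition binding by SPA uses membrane preparations (35 ng/μL final) in pH 7.4 Hepes buffer with 1 mM CaCl2 and 5 mM MgCl₂. Incubation lasts 120 min at 25° C, and IC₅₀ comes from one-site fitting.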
Binder,Ratio rCT/rAmylin binding [1],IC50 [2] [nM],IC50 [3] [nM],Ratio hCT/hAmylin binding [4]
"K([γGlu-C20 diacid])RCNTATCATQRLANFLRHSSPNFGAIPSSTNVGSHTY-NH2 (disulfide 3-8; N-terminus assumed; SMILES CC[C@H](C)[C@H](NC(=O)[C@H](C)NC(=O)CNC(=O)[C@H](Cc1ccccc1)NC(=O)[C@H](CC(N)=O)NC(=O)[C@@H]1CCCN1C(=O)[C@H](CO)NC(=O)[C@H](CO)NC(=O)[C@H](Cc1c[nH]cn1)NC(=O)[C@H](CCCNC(=N)N)NC(=O)[C@H](CC(C)C)NC(=O)[C@H](Cc1ccccc1)NC(=O)[C@H](CC(N)=O)NC(=O)[C@H](C)NC(=O)[C@H](CC(C)C)NC(=O)[C@H](CCCNC(=N)N)NC(=O)[C@H](CCC(N)=O)NC(=O)[C@@H](NC(=O)[C@H](C)NC(=O)[C@@H]1CSSC[C@H](NC(=O)[C@H](CCCNC(=N)N)NC(=O)[C@@H](N)CCCCNC(=O)CC[C@H](NC(=O)CCCCCCCCCCCCCCCCCCC(=O)O)C(=O)O)C(=O)N[C@@H](CC(N)=O)C(=O)N[C@@H]([C@@H](C)O)C(=O)N[C@@H](C)C(=O)N[C@@H]([C@@H](C)O)C(=O)N1)[C@@H](C)O)C(=O)N1CCC[C@H]1C(=O)N[C@@H](CO)C(=O)N[C@@H](CO)C(=O)N[C@H](C(=O)N[C@@H](CC(N)=O)C(=O)N[C@H](C(=O)NCC(=O)N[C@@H](CO)C(=O)N[C@@H](Cc1c[nH]cn1)C(=O)N[C@H](C(=O)N[C@@H](Cc1ccc(O)cc1)C(N)=O)[C@@H](C)O)C(C)C)[C@@H](C)O, Analogue of human amylin; also called compound 44)",53.3,0.369,19.6,17.7
"{C20 diacid-γGlu}-GRCNTATCATQRLANFLRHSSPNFGAIPSSTNVGSHTY-NH2 (disulfide 3-8; SMILES CC[C@H](C)[C@H](NC(=O)[C@H](C)NC(=O)CNC(=O)[C@H](Cc1ccccc1)NC(=O)[C@H](CC(N)=O)NC(=O)[C@@H]1CCCN1C(=O)[C@H](CO)NC(=O)[C@H](CO)NC(=O)[C@H](Cc1c[nH]cn1)NC(=O)[C@H](CCCNC(=N)N)NC(=O)[C@H](CC(C)C)NC(=O)[C@H](Cc1ccccc1)NC(=O)[C@H](CC(N)=O)NC(=O)[C@H](C)NC(=O)[C@H](CC(C)C)NC(=O)[C@H](CCCNC(=N)N)NC(=O)[C@H](CCC(N)=O)NC(=O)[C@@H](NC(=O)[C@H](C)NC(=O)[C@@H]1CSSC[C@H](NC(=O)[C@H](CCCNC(=N)N)NC(=O)CNC(=O)CC[C@H](NC(=O)CCCCCCCCCCCCCCCCCCC(=O)O)C(=O)O)C(=O)N[C@@H](CC(N)=O)C(=O)N[C@@H]([C@@H](C)O)C(=O)N[C@@H](C)C(=O)N[C@@H]([C@@H](C)O)C(=O)N1)[C@@H](C)O)C(=O)N1CCC[C@H]1C(=O)N[C@@H](CO)C(=O)N[C@@H](CO)C(=O)N[C@H](C(=O)N[C@@H](CC(N)=O)C(=O)N[C@H](C(=O)NCC(=O)N[C@@H](CO)C(=O)N[C@@H](Cc1c[nH]cn1)C(=O)N[C@H](C(=O)N[C@@H](Cc1ccc(O)cc1)C(N)=O)[C@@H](C)O)C(C)C)[C@@H](C)O, Analogue of human amylin; also called compound 47)",84.3,0.203,17.1,44.9
